Experimental data taken from US20180002444A1 (ROCKEFELLER UNIVERSITY, published 2018).
Blank lines part the entries; values can stand above or below the binder they belong to.

Experiments:
[1] = biological target: T1, recombinant human MERTK (human, UniProt Q12866 26-499, limits assumed); test: biolayer interferometry, M19 loaded on AMQ sensor, hMer as analyte, 1:1 model, local fit at 5 nM hMer
T1 construct: Analyte in solution in biolayer interferometry; also called hMer
T1 sequence: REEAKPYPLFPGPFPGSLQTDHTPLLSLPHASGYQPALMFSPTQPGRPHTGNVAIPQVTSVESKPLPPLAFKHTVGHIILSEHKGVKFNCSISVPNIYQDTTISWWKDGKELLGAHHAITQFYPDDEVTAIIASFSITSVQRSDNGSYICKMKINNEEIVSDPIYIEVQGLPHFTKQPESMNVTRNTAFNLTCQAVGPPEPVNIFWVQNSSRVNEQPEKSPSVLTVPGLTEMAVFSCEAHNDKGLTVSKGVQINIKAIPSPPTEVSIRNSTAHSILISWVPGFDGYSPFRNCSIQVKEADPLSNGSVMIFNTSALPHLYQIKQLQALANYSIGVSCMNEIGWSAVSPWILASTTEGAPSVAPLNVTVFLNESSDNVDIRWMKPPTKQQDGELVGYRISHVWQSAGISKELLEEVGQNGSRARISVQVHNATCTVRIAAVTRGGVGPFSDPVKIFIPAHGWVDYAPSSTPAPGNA
Protocol: (§1) FIG. 7: M19 binds to human MERTK with high affinity. A diagram showing antibody binding kinetics for M19 (Mer-M19) against human MERTK (hMer) using biolayer interferometry. Purified M19 was loaded on an AMQ sensor at a concentration of 1 microgram/mL to test binding against analytes in solution. All analytes were prepared at 5 nM with a 2-fold dilution series for a total of 7 concentrations. Kinetic fits were calculated using a 1:1 model, with Local fits for each concentration as well as an overall global fit.

[2] = biological target: T1, recombinant human MERTK; test: biolayer interferometry, M6 loaded on AMQ sensor, hMer as analyte, 1:1 model, local fit at 1.25 nM hMer
Protocol: as §1, with “11: M6 binds to MERTK with high affinity. M6” for “7: M19”, “M6 (Mer-M6)” for “M19 (Mer-M19)”, “M6” for “M19”, “Global” for “global”

Kd [1]: 0.248 nM | kon [1]: 3.83e+06 M⁻¹ s⁻¹
B1: antibody M19 (antibody, V domains shown)
VH: EVQLEESGPDLKKPGETVKISCKASNYTFTDYSMHWVKQAPGKGLKWVGWINTDTGEPTYADDFKGRFAFSLETSASTAYLQINNLKNEDTATYFCARWFGAMDYWGQGTSVTVSS
VL: DIVITQSHKFMSTSVGDRVSITCKASQDVTNVVAWYQQKPGQSPKLLIYSASYRYTGVPDRFTGSGSGTDFTFTISSVQAEDLAVYYCQQYYRTPRTFGGGTKLEIKR
notes: mouse hybridoma monoclonal antibody; also called Mer-M19

Kd [2]: 0.048 nM | koff [2]: 0.00015 s⁻¹
B2: antibody M6 (antibody, V domains shown)
VH: QVKLEESGPELKKPGETVKISCKASGYTFTNYGMNWVKQAPGKGLKWMGWINTYTGEPTYADDFKGRFVFSLETSASTAYLQINNLKNEDMATYFCARKSTVVSRYFDVWGAGTTVTVSS
VL: DIVLTQTHKFMSTSVGDRVSITCKASQDVGDAVTWCQQKPGQPPKLLIYWASTRHTGVPDRFTGSGSGTDFTLTINNVQSEDLADYFCQQYRSYPLTFGAGTKLELKR
notes: mouse hybridoma monoclonal antibody; also called Mer-M6
